We go through 22 sequences from the supplement of paper PMC9170038.

The subject of the data set is MS2 coat protein. The experiment in a line: apparent KD of MS2 coat protein; designed switch direction (-1 OFF switch, 1 ON switch): 1; higher = weaker reporter binding. A digest of the protocol:
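Normalised cluster fluorescence was curve-fitted, and each design's median over clusters is its apparent KD. Before this, SNAP-549-labelled MS2 coat protein was titrated from 0.7 or 1.5 nM, doubling to 3 µM, over RNA switches transcribed on Illumina chips by stalled E. coli RNA polymerase. Titrations had no input, 200 uM small-molecule ligand, or an oligonucleotide input, and steps lasted 0.8–1.5 h (lowest) to 10–20 min (highest).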

[1] abbreviates: Eterna round: R95, input ligand: FMN 200 uM.
Setting [2] is: Eterna round: R95, input ligand: microRNA oligo, concentration not stated.
Setting [3] is: Eterna round: R95, input ligand: none.
Where [4] appears, read: input ligand: microRNA oligo, concentration not stated.

On to “AGUCCAGCCUGAGCUGGACAAAGGCAUGUACAUGAGGAUCACCCAUGUUCAUGUACAAGCUUUUUGCUCGUCUUAAA [Zipper 52 - 1] (puzzle: Sensor for hsa-mir-208a)”, for which the “apparent KD of MS2 coat protein” value is 140 nM under setting [1], 11.4 nM under setting [2] and 181 nM under setting [3].
“AGUCCAGCCUGAGCUGGACAAAAGCAUGUACAUGAGGAUCACCCAUGUUCAUGUACAAGCUUUUUGCUCGUCAAAAG [Mat - hsa-mir-208a - Mod of JL - 67] (puzzle: Sensor for hsa-mir-208a)”: the “apparent KD of MS2 coat protein” value under setting [1] came to 180 nM, the “apparent KD of MS2 coat protein” value under setting [2] was 18.3 nM and the “apparent KD of MS2 coat protein” value under setting [3] came out at 372 nM.
Regarding “ACAAGCUUUUUGCUCAUCUUAUGUCCGAAACAUGAGGAUCACCCAUGUAUAGAUUAUGUGUUGUUUUUGAUACAAGA [JR_SHM208A_Sub064] (puzzle: Sensor for hsa-mir-208a)”, the “apparent KD of MS2 coat protein” value under setting [1] was found to be 32.1 nM, the “apparent KD of MS2 coat protein” value under setting [2] came out at 24.9 nM and the “apparent KD of MS2 coat protein” value under setting [3] worked out at 33.1 nM.
For the sequence “GGAAUAUUUACAGGAUAUGUUUUGUUAAGUCGAGCAGAAGGGUAGAUGUCUUACACGGUUUGUUACAUGAGGAUCACCCAUGUU [SameState NG1 #17] (Eterna round: R96, puzzle: Same State NG 1)”, the “apparent KD of MS2 coat protein” value under setting [4] came to 86.6 nM.
For “UUUACUUUCAUAGGAUAUCAUGCGAAAAUUGCGUGAGAAGGGUGAACACUGUCUUUCUAAGAGUACAUGAGGAUCACCCAUGUA [SameState NG1 #65] (Eterna round: R96, puzzle: Same State NG 1)”, the “apparent KD of MS2 coat protein” value (input ligand: FMN 200 uM) came out at 113 nM, the “apparent KD of MS2 coat protein” value under setting [4] came out at 102 nM and the “apparent KD of MS2 coat protein” value (input ligand: none) stood at 131 nM.
“CGUCCAGCCUGAGCUGGACAAAAGCAUGUACAUGAGGAUCACCCAUGUUCAUGUACAAGCUUUUUGCUCGUCUUAGA [salish99_208a_r3_072] (puzzle: Sensor for hsa-mir-208a)”: the “apparent KD of MS2 coat protein” value reads like this: under setting [1], 477 nM; under setting [2], 15.3 nM; under setting [3], 432 nM.
As for “UAGGAACAUGAGGAUCACCCAUGUACCUCAUAUGGAGAAACACAGGAUAUGCUGAGGGAAACACAGCAGAAGGGUGAAGAGAGG [Default title] (Eterna round: R96, puzzle: Same State NG 3)”, the “apparent KD of MS2 coat protein” value by setting is: (input ligand: FMN 200 uM) 22.7 nM; under setting [4], 27.1 nM; (input ligand: none) 32.8 nM.
“UGAAUGGUGAUAGGAUAUACAUGAGGAAUCCUCGUAGAAGGAUCACGACAUGAGGAUCACCCAUGUAGCCGUCCGUAGACGGCC [salish99_SSNG1_r04_002] (Eterna round: R96, puzzle: Same State NG 1)”: the “apparent KD of MS2 coat protein” value under setting [4] turned out to be 89.6 nM.
As for “AGUCCAGCCAAAGCUGGACAAAAGCAUGUACAUGAGGAUCACCCAUGUUCAUGUACAAGCUUUUUGCAAGUCAAAAU [Mat - hsa-mir-208a - Mod of JL - 78] (puzzle: Sensor for hsa-mir-208a)”, the “apparent KD of MS2 coat protein” value runs as follows: under setting [1], 542 nM; under setting [2], 17.1 nM; under setting [3], 433 nM.
“AGCUAGUACGAAGGAUAUACAAACAUGAGGAUCACCCAUGUAUACAUGGUUUAAUGAGACUACAUGUAGAAGGUCGUACUAGCA [SameState NG2 #13] (Eterna round: R96, puzzle: Same State NG 2)”: the “apparent KD of MS2 coat protein” value is, setting by setting: (input ligand: FMN 200 uM) 559 nM; under setting [4], 423 nM; (input ligand: none) 1030 nM.
With “AGUUGUGGAAAACUAUAGCAAAAGCAUGUACAUGAGGAUCACCCAUGUCAUGUACAAGCUUUUUGCUCGUCUUAUGG [ak 3 mod of one Eli's designs.] (puzzle: Sensor for hsa-mir-208a)”, the “apparent KD of MS2 coat protein” value is, setting by setting: under setting [1], 25 nM; under setting [2], 13.9 nM; under setting [3], 50.3 nM.
On to “AACAUUCUAUCUCAGGAUAUCAUGUCAAAGACAUGAGGAUCACCCAUGUACCAGGAAACUGGUUAUGAGAAGGGAGAUAGAAUGG [Mat - Same State 2 - Mod - D48] (puzzle: Same State 2)”, for which the “apparent KD of MS2 coat protein” value by setting is: under setting [1], 182 nM; under setting [2], 195 nM; under setting [3], 624 nM.
Turning to “ACAAGCUUUUUUGUAGUGAAAGGUGGGAUACAUGAGGAUCACCCAUGUAUUGUUGUUAAUAUUUGUCCUCGUCUUAU [JR_SHM208A_Sub085] (puzzle: Sensor for hsa-mir-208a)”, the “apparent KD of MS2 coat protein” value under setting [1] was found to be 31.8 nM, the “apparent KD of MS2 coat protein” value under setting [2] was determined as 13.9 nM and the “apparent KD of MS2 coat protein” value under setting [3] was determined as 36.3 nM.
Regarding “UGCGGAUAACAGUAGGAUAUGGUCAACGCCACAUGAGGAUCACCCAUGUCGUACCGGCACCUGGACUAGAAGGACUGCCUCCCGC [Esleberi] (puzzle: Same State 2)”, the “apparent KD of MS2 coat protein” value was 11.6 nM under setting [1], 26.4 nM under setting [2] and 38 nM under setting [3].
With “UGUUGUAUUACAGGAUAUCUAUUAUGUUUAUUUAGAGAAGGGUAUUCACAUGAGGAUCACCCAUGUAUAUACGAGGAAGUUGUG [JMF's solution 16] (Eterna round: R96, puzzle: Same State NG 1)”, under setting [4], the “apparent KD of MS2 coat protein” value came to 37.5 nM.
For “CUGUGUUGCGGGCAGGAUAUGUAUUGGGAUACAUGAGGAUCACCCAUGUGCGGGUGUUUCACCCGACAGAAGGGCCAAUCGCGAC [JL-ss2-3.22 ViennaUCT mod] (puzzle: Same State 2)”, the “apparent KD of MS2 coat protein” value is 200 nM under setting [1], 370 nM under setting [2] and 472 nM under setting [3].
Regarding “UGUUGUAUUACAGGAUAUCUAUUGUUUUAAUUUAGAGAAGGGUAUUCACAUGAGGAUCACCCAUGUAUAUACGAGGAAGUUGUG [JMF's solution 76] (Eterna round: R96, puzzle: Same State NG 1)”, under setting [4], the “apparent KD of MS2 coat protein” value is 40.6 nM.
Turning to “GUGGCCCAGGCACAGGAUAUGUUUCUCGUAACAUGAGGAUCACCCAUGUGCCUAUGAGAUUGUUUGCAGAAGGGUGCACGCCACG [JL Atiinbe mod 03] (puzzle: Same State 2)”, the “apparent KD of MS2 coat protein” value reads like this: under setting [1], 21 nM; under setting [2], 348 nM; under setting [3], 541 nM.
As to “AAGAAAGACGCAGGAUAUCAGCGCAAAACACGCUGAGAAGGGUGAGACAUGAGGAUCACCCAUGUAACACGGCAAAACGCCGUG [Atinanor] (Eterna round: R96, puzzle: Same State NG 1)”, the “apparent KD of MS2 coat protein” value runs as follows: (input ligand: FMN 200 uM) 2190 nM; under setting [4], 122 nM; (input ligand: none) 1310 nM.
“UUGAAGAAUUAAGGAUAUCGAGUCGUCAGAUUAAACAUGAGGAUCACCCAUGUGGGUUGCGGUAUCGAGAAGGUAAAUUACAAG [JL JR Sub099 mod 2] (Eterna round: R96, puzzle: Same State NG 2)”: the “apparent KD of MS2 coat protein” value by setting is: (input ligand: FMN 200 uM) 20.5 nM; under setting [4], 27.2 nM; (input ligand: none) 39.9 nM.
As to “GAGUGGAGGAAAGGAUAUACAAUGAUAAUCACAGUAGAAGGUUCUAACAUGAGGAUCACCCAUGUAGGACUAUACCAGAGAGGG [Parity 46 - Jieux - Same State NG 1] (Eterna round: R96, puzzle: Same State NG 1)”, the “apparent KD of MS2 coat protein” value under setting [4] worked out at 11.4 nM.
Take “GGAGCCGACACUGAGGAUAUUCAUAUUAAAACAUGAGGAUCACCCAUGUAGGCCAGAAGGCCUUGGGAGAAGGCAGGUCGGCCCG [Bibimoar - 2] (puzzle: Same State 2)”: the “apparent KD of MS2 coat protein” value is, setting by setting: under setting [1], 15.9 nM; under setting [2], 331 nM; under setting [3], 294 nM.
